Test results as given in patent US20210198328A1, “MODULATED CAS-INHIBITORS” (Universität Heidelberg, priority 2017, published 2021).

Tests used:
[1] = biological target: dCas9-3xRFP (Streptococcus pyogenes) (UniProt Q99ZW2); test: cell-based or functional assay
dCas9-p300 = dCas9-p300 (UniProt Q99ZW2); test: cell-based or functional assay

CASANOVA (Acr-LOV variant 4; delta N64/Q65/E66, LOV2 inserted, no GS-linkers)
telomere labeling in U2OS nuclei, dark: cells labeling negative [1]: 60% | telomere labeling in U2OS nuclei, dark: more than 15 dots in the nucleus [1]: < 5% | telomere labeling in U2OS nuclei, light: more than 15 dots in the nucleus [1]: 40% | telomere labeling in U2OS nuclei, light: nuclei labeling positive [1]: 80% | IL1RN transcript levels by quantitative RT-PCR, light against dark (dCas9-p300): < 10 fold
